Laboratory results taken from US12630600B2 (MEDIMMUNE LIMITED, priority 2022, dated 2026).
One block for each binder: values may come before it. Starred links: 1 amine or outer side, 2 acyl side, 3 side chain; linkers in the order of their positions; H or OH if unused. Non-standard residues stand in square brackets, D forms with d. Groups on a side chain read outwards from the residue. No end group written: not given here. *: point of attachment. C20 diacid = O=C(O)CCCCCCCCCCCCCCCCCCC(=O)*; C18 diacid = O=C(O)CCCCCCCCCCCCCCCCC(=O)*; γGlu = O=C(O)[C@H](CCC(=O)[*:2])N[*:1]; αMeF = C[C@](N)(Cc1ccccc1)C(=O)O; AEEA = NCCOCCOCC(=O)O; Aib = CC(C)(N)C(=O)O

Key:
human glucagon receptor = human glucagon receptor (human, UniProt P47871); test: cell-based or functional assay
human GLP-1 receptor = human GLP-1 receptor (human, UniProt P43220); test: cell-based or functional assay

B3: Peptide 441 (peptide)
peptide: H[Aib]QGTFTSDVSK[αMeF]LDKK([AEEA-AEEA-γGlu-C20 diacid])RAQDFVRWLL[Aib]E-NH2
modifications: N-terminus assumed
SMILES: CC(C)C[C@H](NC(=O)[C@H](Cc1c[nH]c2ccccc12)NC(=O)[C@H](CCCNC(=N)N)NC(=O)[C@@H](NC(=O)[C@H](Cc1ccccc1)NC(=O)[C@H](CC(=O)O)NC(=O)[C@H](CCC(N)=O)NC(=O)[C@H](C)NC(=O)[C@H](CCCNC(=N)N)NC(=O)[C@H](CCCCNC(=O)COCCOCCNC(=O)COCCOCCNC(=O)CC[C@H](NC(=O)CCCCCCCCCCCCCCCCCCC(=O)O)C(=O)O)NC(=O)[C@H](CCCCN)NC(=O)[C@H](CC(=O)O)NC(=O)[C@H](CC(C)C)NC(=O)[C@](C)(Cc1ccccc1)NC(=O)[C@H](CCCCN)NC(=O)[C@H](CO)NC(=O)[C@@H](NC(=O)[C@H](CC(=O)O)NC(=O)[C@H](CO)NC(=O)[C@@H](NC(=O)[C@H](Cc1ccccc1)NC(=O)[C@@H](NC(=O)CNC(=O)[C@H](CCC(N)=O)NC(=O)C(C)(C)NC(=O)[C@@H](N)Cc1c[nH]cn1)[C@@H](C)O)[C@@H](C)O)C(C)C)C(C)C)C(=O)N[C@@H](CC(C)C)C(=O)NC(C)(C)C(=O)N[C@@H](CCC(=O)O)C(N)=O
cAMP production EC50 (human glucagon receptor): 72.8 pM
cAMP production EC50 (human GLP-1 receptor): 62.7 pM

B4: Peptide 442 (peptide)
peptide: H[Aib]QGTFTSDVSK[αMeF]LDKK([AEEA-AEEA-γGlu-C18 diacid])RAQDFVRWLLE[Aib]G-NH2
modifications: N-terminus assumed
SMILES: CC(C)C[C@H](NC(=O)[C@H](Cc1c[nH]c2ccccc12)NC(=O)[C@H](CCCNC(=N)N)NC(=O)[C@@H](NC(=O)[C@H](Cc1ccccc1)NC(=O)[C@H](CC(=O)O)NC(=O)[C@H](CCC(N)=O)NC(=O)[C@H](C)NC(=O)[C@H](CCCNC(=N)N)NC(=O)[C@H](CCCCNC(=O)COCCOCCNC(=O)COCCOCCNC(=O)CC[C@H](NC(=O)CCCCCCCCCCCCCCCCC(=O)O)C(=O)O)NC(=O)[C@H](CCCCN)NC(=O)[C@H](CC(=O)O)NC(=O)[C@H](CC(C)C)NC(=O)[C@](C)(Cc1ccccc1)NC(=O)[C@H](CCCCN)NC(=O)[C@H](CO)NC(=O)[C@@H](NC(=O)[C@H](CC(=O)O)NC(=O)[C@H](CO)NC(=O)[C@@H](NC(=O)[C@H](Cc1ccccc1)NC(=O)[C@@H](NC(=O)CNC(=O)[C@H](CCC(N)=O)NC(=O)C(C)(C)NC(=O)[C@@H](N)Cc1c[nH]cn1)[C@@H](C)O)[C@@H](C)O)C(C)C)C(C)C)C(=O)N[C@@H](CC(C)C)C(=O)N[C@@H](CCC(=O)O)C(=O)NC(C)(C)C(=O)NCC(N)=O
cAMP production EC50 (human glucagon receptor): 35.8 pM
cAMP production EC50 (human GLP-1 receptor): 19.1 pM

B5: Peptide 440 (peptide)
peptide: H[Aib]QGTFTSDVSK[αMeF]LDKK([AEEA-AEEA-γGlu-C20 diacid])RARDFVRWLL[Aib]E-OH
modifications: N-terminus assumed
SMILES: CC(C)C[C@H](NC(=O)[C@H](Cc1c[nH]c2ccccc12)NC(=O)[C@H](CCCNC(=N)N)NC(=O)[C@@H](NC(=O)[C@H](Cc1ccccc1)NC(=O)[C@H](CC(=O)O)NC(=O)[C@H](CCCNC(=N)N)NC(=O)[C@H](C)NC(=O)[C@H](CCCNC(=N)N)NC(=O)[C@H](CCCCNC(=O)COCCOCCNC(=O)COCCOCCNC(=O)CC[C@H](NC(=O)CCCCCCCCCCCCCCCCCCC(=O)O)C(=O)O)NC(=O)[C@H](CCCCN)NC(=O)[C@H](CC(=O)O)NC(=O)[C@H](CC(C)C)NC(=O)[C@](C)(Cc1ccccc1)NC(=O)[C@H](CCCCN)NC(=O)[C@H](CO)NC(=O)[C@@H](NC(=O)[C@H](CC(=O)O)NC(=O)[C@H](CO)NC(=O)[C@@H](NC(=O)[C@H](Cc1ccccc1)NC(=O)[C@@H](NC(=O)CNC(=O)[C@H](CCC(N)=O)NC(=O)C(C)(C)NC(=O)[C@@H](N)Cc1c[nH]cn1)[C@@H](C)O)[C@@H](C)O)C(C)C)C(C)C)C(=O)N[C@@H](CC(C)C)C(=O)NC(C)(C)C(=O)N[C@@H](CCC(=O)O)C(=O)O
cAMP production EC50 (human glucagon receptor): 81 pM
cAMP production EC50 (human GLP-1 receptor): 154 pM

B6: Peptide 443 (peptide)
peptide: H[Aib]QGTFTSDVSK[αMeF]LDKK([AEEA-AEEA-γGlu-C18 diacid])RARDFVRWLL[Aib]E-NH2
modifications: N-terminus assumed
SMILES: CC(C)C[C@H](NC(=O)[C@H](Cc1c[nH]c2ccccc12)NC(=O)[C@H](CCCNC(=N)N)NC(=O)[C@@H](NC(=O)[C@H](Cc1ccccc1)NC(=O)[C@H](CC(=O)O)NC(=O)[C@H](CCCNC(=N)N)NC(=O)[C@H](C)NC(=O)[C@H](CCCNC(=N)N)NC(=O)[C@H](CCCCNC(=O)COCCOCCNC(=O)COCCOCCNC(=O)CC[C@H](NC(=O)CCCCCCCCCCCCCCCCC(=O)O)C(=O)O)NC(=O)[C@H](CCCCN)NC(=O)[C@H](CC(=O)O)NC(=O)[C@H](CC(C)C)NC(=O)[C@](C)(Cc1ccccc1)NC(=O)[C@H](CCCCN)NC(=O)[C@H](CO)NC(=O)[C@@H](NC(=O)[C@H](CC(=O)O)NC(=O)[C@H](CO)NC(=O)[C@@H](NC(=O)[C@H](Cc1ccccc1)NC(=O)[C@@H](NC(=O)CNC(=O)[C@H](CCC(N)=O)NC(=O)C(C)(C)NC(=O)[C@@H](N)Cc1c[nH]cn1)[C@@H](C)O)[C@@H](C)O)C(C)C)C(C)C)C(=O)N[C@@H](CC(C)C)C(=O)NC(C)(C)C(=O)N[C@@H](CCC(=O)O)C(N)=O
cAMP production EC50 (human glucagon receptor): 22.4 pM
cAMP production EC50 (human GLP-1 receptor): 20.6 pM

Results, then the binder that gave them:

cAMP production EC50 (human glucagon receptor): 667 pM
cAMP production EC50 (human GLP-1 receptor): 170 pM
B1: Peptide 447 (peptide)
peptide: H[Aib]QGTFTSDVSK[αMeF]LDRK([AEEA-AEEA-γGlu-γGlu-C20 diacid])RAQDFVRWLV[Aib]E-NH2
modifications: N-terminus assumed
SMILES: CC(C)C[C@H](NC(=O)[C@H](Cc1c[nH]c2ccccc12)NC(=O)[C@H](CCCNC(=N)N)NC(=O)[C@@H](NC(=O)[C@H](Cc1ccccc1)NC(=O)[C@H](CC(=O)O)NC(=O)[C@H](CCC(N)=O)NC(=O)[C@H](C)NC(=O)[C@H](CCCNC(=N)N)NC(=O)[C@H](CCCCNC(=O)COCCOCCNC(=O)COCCOCCNC(=O)CC[C@H](NC(=O)CC[C@H](NC(=O)CCCCCCCCCCCCCCCCCCC(=O)O)C(=O)O)C(=O)O)NC(=O)[C@H](CCCNC(=N)N)NC(=O)[C@H](CC(=O)O)NC(=O)[C@H](CC(C)C)NC(=O)[C@](C)(Cc1ccccc1)NC(=O)[C@H](CCCCN)NC(=O)[C@H](CO)NC(=O)[C@@H](NC(=O)[C@H](CC(=O)O)NC(=O)[C@H](CO)NC(=O)[C@@H](NC(=O)[C@H](Cc1ccccc1)NC(=O)[C@@H](NC(=O)CNC(=O)[C@H](CCC(N)=O)NC(=O)C(C)(C)NC(=O)[C@@H](N)Cc1c[nH]cn1)[C@@H](C)O)[C@@H](C)O)C(C)C)C(C)C)C(=O)N[C@H](C(=O)NC(C)(C)C(=O)N[C@@H](CCC(=O)O)C(N)=O)C(C)C

cAMP production EC50 (human glucagon receptor): 366 pM
cAMP production EC50 (human GLP-1 receptor): 32.9 pM
B2: Peptide 446 (peptide)
peptide: H[Aib]QGTFTSDVSK[αMeF]LDRK([AEEA-AEEA-γGlu-γGlu-C18 diacid])RAQDFVRWLV[Aib]E-NH2
modifications: N-terminus assumed
SMILES: CC(C)C[C@H](NC(=O)[C@H](Cc1c[nH]c2ccccc12)NC(=O)[C@H](CCCNC(=N)N)NC(=O)[C@@H](NC(=O)[C@H](Cc1ccccc1)NC(=O)[C@H](CC(=O)O)NC(=O)[C@H](CCC(N)=O)NC(=O)[C@H](C)NC(=O)[C@H](CCCNC(=N)N)NC(=O)[C@H](CCCCNC(=O)COCCOCCNC(=O)COCCOCCNC(=O)CC[C@H](NC(=O)CC[C@H](NC(=O)CCCCCCCCCCCCCCCCC(=O)O)C(=O)O)C(=O)O)NC(=O)[C@H](CCCNC(=N)N)NC(=O)[C@H](CC(=O)O)NC(=O)[C@H](CC(C)C)NC(=O)[C@](C)(Cc1ccccc1)NC(=O)[C@H](CCCCN)NC(=O)[C@H](CO)NC(=O)[C@@H](NC(=O)[C@H](CC(=O)O)NC(=O)[C@H](CO)NC(=O)[C@@H](NC(=O)[C@H](Cc1ccccc1)NC(=O)[C@@H](NC(=O)CNC(=O)[C@H](CCC(N)=O)NC(=O)C(C)(C)NC(=O)[C@@H](N)Cc1c[nH]cn1)[C@@H](C)O)[C@@H](C)O)C(C)C)C(C)C)C(=O)N[C@H](C(=O)NC(C)(C)C(=O)N[C@@H](CCC(=O)O)C(N)=O)C(C)C

cAMP production EC50 (human glucagon receptor): 1760 pM
cAMP production EC50 (human GLP-1 receptor): 247 pM
Binder: H[Aib]QGTFTSDVSK[αMeF]LETK([AEEA-AEEA-γGlu-C18 diacid])RARDFVQWLLE[Aib]G-OH (not fully specified) [Peptide 444]

cAMP production EC50 (human glucagon receptor): 684 pM
cAMP production EC50 (human GLP-1 receptor): 33 pM
Binder: H[Aib]QGTFTSDVSK[αMeF]LETK([AEEA-AEEA-γGlu-C18 diacid])RARDFVQWLLE[Aib]G-OH [Peptide 445]

cAMP production EC50 (human glucagon receptor): 29 pM
cAMP production EC50 (human GLP-1 receptor): 53.1 pM
B7: Peptide 448 (peptide)
peptide: H[Aib]QGTFTSDVSK[αMeF]LDKK([AEEA-AEEA-γGlu-γGlu-C18 diacid])RARDFVRWLL[Aib]E-OH
modifications: N-terminus assumed
SMILES: CC(C)C[C@H](NC(=O)[C@H](Cc1c[nH]c2ccccc12)NC(=O)[C@H](CCCNC(=N)N)NC(=O)[C@@H](NC(=O)[C@H](Cc1ccccc1)NC(=O)[C@H](CC(=O)O)NC(=O)[C@H](CCCNC(=N)N)NC(=O)[C@H](C)NC(=O)[C@H](CCCNC(=N)N)NC(=O)[C@H](CCCCNC(=O)COCCOCCNC(=O)COCCOCCNC(=O)CC[C@H](NC(=O)CC[C@H](NC(=O)CCCCCCCCCCCCCCCCC(=O)O)C(=O)O)C(=O)O)NC(=O)[C@H](CCCCN)NC(=O)[C@H](CC(=O)O)NC(=O)[C@H](CC(C)C)NC(=O)[C@](C)(Cc1ccccc1)NC(=O)[C@H](CCCCN)NC(=O)[C@H](CO)NC(=O)[C@@H](NC(=O)[C@H](CC(=O)O)NC(=O)[C@H](CO)NC(=O)[C@@H](NC(=O)[C@H](Cc1ccccc1)NC(=O)[C@@H](NC(=O)CNC(=O)[C@H](CCC(N)=O)NC(=O)C(C)(C)NC(=O)[C@@H](N)Cc1c[nH]cn1)[C@@H](C)O)[C@@H](C)O)C(C)C)C(C)C)C(=O)N[C@@H](CC(C)C)C(=O)NC(C)(C)C(=O)N[C@@H](CCC(=O)O)C(=O)O
